We go through 1 molecule from patent publication US20240301068A1 (BEIJING HANMI PHARMACEUTICAL, published 2024).

Test [1] concerns the target recombinant human PD-L1 (Sino Biological Inc.) (human, UniProt Q9NZQ7 19-239). The test can be described thus: SPR, Biacore X100. How it is done:
This instrument utilizes optical surface plasmon resonance technology to detect the association and dissociation between the molecules coated on the biochip and the molecules to be tested. Association constants and dissociation constants were analyzed and calculated by Biacore X100 evaluation software. […]

In test [2] the target is recombinant human CD28 (Sino Biological Inc.) (human, UniProt P10747 19-152). Briefly: ELISA, plate coated with 1 ug/mL recombinant human CD28, anti-human IgG-HRP, OD450; antibody concentration not shown. How it is done: The plate was washed 5 times with PBST, and then blocked using PBST with 1% BSA, 300 μL/well, and incubated at 25° C. for 1 hour, and then washed 5 times with PBST. […] The horseradish peroxidase-labeled anti-human IgG antibody (Chemicon, catalog number AP309P) diluted 1:10000 in PBST with 1% BSA was then added, 100 μL per well, and incubated at 25° C. for 1 hour. The plate was washed 5 times with PBST. The colorimetric substrate TMB was added, 100 μL/well, and developed at room temperature for 10 minutes. 1M H₂SO₄ was added, 100 μL/well, to stop the development. The absorbance at 450 nm was read on a microplate reader.
In general terms: ELISA stands for enzyme-linked immunosorbent assay.

Chain of recombinant human PD-L1 (Sino Biological Inc.) (Q9NZQ7 19-239 limits assumed): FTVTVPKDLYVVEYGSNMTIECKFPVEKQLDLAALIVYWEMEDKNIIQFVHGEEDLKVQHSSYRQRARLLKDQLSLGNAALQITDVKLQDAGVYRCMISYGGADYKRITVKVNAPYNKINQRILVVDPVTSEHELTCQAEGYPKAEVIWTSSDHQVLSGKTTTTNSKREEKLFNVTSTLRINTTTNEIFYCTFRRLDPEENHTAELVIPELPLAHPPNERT

B1: chimeric anti-human PD-L1 monoclonal antibody (antibody, human IgG1, kappa, V domains shown)
VH: EVQLQQSGAELVKPGASVKLSCTASGFNIEDTYIHWVMQRPEQGLEWIGRIDPANGNTKYDPKFQGKATITADTSSNTAYLQLSSLTSEDTAVYYCGRGLGAWFAYWGQGTLVTVSA
VL: DIVMTQSHKVMSTSVGDRVTITCKASQDVHTAVAWIHQKPGQSPKLLIYSASNRYTGVPDRFTGSGSGTDFTFTISSVQAEDLAVYYCQQHYITPLTFGAGTTLELKR
notes: expressed in ExpiCHO cells; also called Chimeric mAb; Chimeric antibody
In general, Kd refers to the free concentration of one partner at which half of the binding sites on the other are occupied at equilibrium, for simple one-to-one binding. One may read the koff as a measure of how fast the partners let go of each other. In general, kon refers to a measure of how fast the partners come together. Consider B1, for which, in test [1], the Kd was 1.17 nM, the koff came out at 0.000594 s⁻¹ and the on-rate constant (kon) turned out to be 507000 M⁻¹ s⁻¹. Further, the binding result in test [2] is recorded as “no binding”.
